# PMC9568494, “A portable electrochemiluminescence aptasensor for β-lactoglobulin detection”
# T1: beta-lactoglobulin (β-LG) (Bos taurus (cow)?, UniProt P02754 17-178)
# T1 sequence: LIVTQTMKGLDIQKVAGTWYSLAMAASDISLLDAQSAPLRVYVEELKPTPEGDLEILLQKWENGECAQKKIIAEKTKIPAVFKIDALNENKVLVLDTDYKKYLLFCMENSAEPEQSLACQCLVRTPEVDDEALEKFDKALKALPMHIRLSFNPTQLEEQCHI
# Molecular target: T1, beta-lactoglobulin (β-LG)
# Test: electrochemical (chronoamperometric) titration on gold screen-printed electrode, immobilized β-LG, streptavidin-HRP/TMB; 2 mM MgCl2 in BS-LG selection buffer; aptamer 40-100 nM; Kd read as inflection point; Kd assay: BS-LG, 50 mM Tris pH 7.4, 150 mM NaCl, 2 mM MgCl2 (wash and HRP step; aptamer diluent not stated), 30 min incubation, temperature not stated
# Conditions: protein: commercial; chain copies: 2; label: 5'-biotin
binder,measurement,value
BLG14 aptamer (ssDNA) DNA: GACGATCGGACCGCAGTACCCACCCACCAGCCCCAACATCATGCCCATCCGTGTGTG,Kd,56 nM
